Results: patent US20100285597A1, “DETECTION OF FRAGMENTS OF NECTIN-1 FOR THE DIAGNOSIS OF ALZHEIMER'S DISEASE” (UNIVERSITY OF ROCHESTER, priority 2007, published 2010)
Numbering of substitutions follows the chain as printed. Names may count otherwise. Blank lines part the entries; values can stand above or below the molecule they belong to.

Experiments:
[1] = target: T1, BACE1 (Homo sapiens, UniProt P56817); experiment: Co-immunoprecipitation of nectin-1 truncation mutants with BACE1 co-expressed in HEK 293 cells; format: binding; details: 48 hr. after transfection
T1 construct: expressed in transfected cells; host or cells: HEK 293
Description: To define the minimal region within the ectodomain of nectin-1 required for BACE1 interaction, immunoprecipitations between the nectin-1 truncation mutants and BACE1 were performed. BACE1 and full length or truncated nectin-1 were co-expressed in HEK 293 cells and harvested 48 hr. after transfection. To confirm to the efficiencies of the co-transfections, equal volumes of cell lysate were loaded on SDS-PAGE gels and analyzed by Western blot. Transfection efficiency was similar for nectin-1 and its derivates (FIG. 10A) and BACE1 (FIG. 10B). Immunoprecipitation was performed with a nectin-1 cytoplasmic specific antibody and precipitates were analyzed on two separate 10% SDS-PAGE. Western blots were probed with anti-nectin-1 (FIG. 10C) or anti-BACE1 (FIG. 10D) antibodies. The nectin-1 antibody directly immunoprecipitated the respective nectin-1 polypeptides and processed CTFs (FIG. 10C). Furthermore, BACE1, both monomer and dimer, was immunoprecipitated by the nectin-1 antibody, confirming the association of BACE1 with nectin-1.

[2] = target: T1, BACE1; experiment: Co-immunoprecipitation of nectin-1 point mutants with BACE1 co-expressed in HEK 293 cells; format: binding; details: 48 hr. after transfection
Description: To express how these point mutations affect the association of nectin-1 with BACE1, physical association of the mutants was examined by immunoprecipitation. We co-expressed BACE1 and nectin-1 or one of the cleavage refractory point mutants in HEK 293 cells. Cells were harvested and lysed in lysis buffer 48 hr. after transfection. To confirm the co-transfection efficiency of nectin-1 or it derivatives and BACE1, equal volumes of cell lysates were analyzed by 10% SDS-PAGE followed by Western blotting. Transfection efficiencies for nectin-1 and derivatives and BACE1 were similar in each sample (FIG. 12A—nectin-1, FIG. 12B—BACE1). Co-expression of nectin-1 with BACE1 increased the amount of CTF bands compared to nectin-1 alone (FIG. 12A, lanes 3 and 4).
Immunoprecipitation was performed using a C-terminal specific nectin-1 antibody. […] The intensities of nectin-1 CTF bands were much stronger when nectin-1 was co-expressed with BACE1. BACE1 was also detected in nectin-1 complexes (FIG. 12D).

[3] = system: processing of wild type nectin-1; experiment: Co-transfection of nectin-1 mutants with wild-type nectin-1 in HEK 293 cells, Western blot of CTF bands; format: cell-based; details: 0.5 μg wild-type nectin-1 plasmid, 24 hr. post-transfection
Description: Mutants T310A and Y311A were tested to see if they would interfere with the processing of wild type nectin-1. HEK 293 cells were co-transfected with 0.5 μg of a plasmid containing wild-type nectin-1 and with a plasmid containing no insert (control), green fluorescent protein (GFP), nectin-1 T310A or nectin-1 Y311A. Co transfection efficiency was approximately 85%. Cells were harvested 24 hr. post-transfection and samples were analyzed on a 12% SDS-PAGE gel. […] Co-transfection with vector alone or GFP had no effect on nectin-1 processing. […] The residual CTF bands detected in the T310A and Y311A samples are likely due to the 15% of the cell population that received only the wild type nectin-1 construct.

T1 sequence (P56817 46-501, species assumed): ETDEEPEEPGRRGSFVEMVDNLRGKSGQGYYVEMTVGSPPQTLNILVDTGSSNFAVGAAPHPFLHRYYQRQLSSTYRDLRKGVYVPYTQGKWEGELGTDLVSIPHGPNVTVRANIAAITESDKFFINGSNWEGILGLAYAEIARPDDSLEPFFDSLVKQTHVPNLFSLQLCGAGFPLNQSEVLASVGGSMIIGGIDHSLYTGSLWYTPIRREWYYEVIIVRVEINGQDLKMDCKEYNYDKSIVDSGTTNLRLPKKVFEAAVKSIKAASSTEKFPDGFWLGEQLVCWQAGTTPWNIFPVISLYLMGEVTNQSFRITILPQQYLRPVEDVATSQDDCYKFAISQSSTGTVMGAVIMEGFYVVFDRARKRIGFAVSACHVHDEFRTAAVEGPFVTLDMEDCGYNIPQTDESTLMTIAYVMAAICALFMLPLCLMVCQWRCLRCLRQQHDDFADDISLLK

B3: Δ28-312: nectin-1 ectodomain truncation mutant, V5 and flag tagged (protein)
chain: CEATNPIGTRSGQVEVNITEFPYTPSPPEHGRRAGPVPTAIIGGVAGSILLVLIVVGGIVVALRRRRHTFKGDYSTKKHVYGNGYSKAGIPQHHPPMAQNLQYPDDSDDEKKAGPLGGSSYEEEEEEEEGGGGGERKVGGPHPKYDEDAKRPYFTVDEAEARQDGYGDRTLGYQYDPEQLDLAENMVSQNDGSFISKKEWYV
modifications: left off: small tags and cut ends
notes: nectin-1 ectodomain truncation mutant, V5 and flag tagged
association with BACE1 (co-immunoprecipitation with nectin-1 antibody) [1]: Association with BACE1 was also detected

B4: T310A: T310A point mutant of nectin-1 (protein, listed as Homo sapiens)
chain: MARMGLAGAAGRWWGLALGLTAFFLPGVHSQVVQVNDSMYGFIGTDVVLHCSFANPLPSVKITQVTWQKSTNGSKQNVAIYNPSMGVSVLAPYRERVEFLRPSFTDGTIRLSRLELEDEGVYICEFATFPTGNRESQLNLTVMAKPTNWIEGTQAVLRAKKGQDDKVLVATCTSANGKPPSVVSWETRLKGEAEYQEIRNPNGTVTVISRYRLVPSREAHQQSLACIVNYHMDRFKESLTLNVQYEPEVTIEGFDGNWYLQRMDVKLTCKADANPPATEYHWTTLNGSLPKGVEAQNRTLFFKGPINYSLAGAYICEATNPIGTRSGQVEVNITEFPYTPSPPEHGRRAGPVPTAIIGGVAGSILLVLIVVGGIVVALRRRRHTFKGDYSTKKHVYGNGYSKAGIPQHHPPMAQNLQYPDDSDDEKKAGPLGGSSYEEEEEEEEGGGGGERKVGGPHPKYDEDAKRPYFTVDEAEARQDGYGDRTLGYQYDPEQLDLAENMVSQNDGSFISKKEWYV
intensity of BACE1 bands co-precipitated, compared with wild type nectin-1 [2]: much greater than that precipitated by wild type nectin-1
production of CTF bands of co-transfected wild type nectin-1 [3]: substantially reduced

B5: Y311A: Y311A point mutant of nectin-1 (protein, listed as Homo sapiens)
chain: B4 chain with A313T, Y314A
intensity of BACE1 bands co-precipitated, compared with wild type nectin-1 [2]: much greater than that precipitated by wild type nectin-1
production of CTF bands of co-transfected wild type nectin-1 [3]: substantially reduced

B6: Δ28-250: nectin-1 ectodomain truncation mutant, V5 and flag tagged (protein)
chain: FDGNWYLQRMDVKLTCKADANPPATEYHWTTLNGSLPKGVEAQNRTLFFKGPINYSLAGTYICEATNPIGTRSGQVEVNITEFPYTPSPPEHGRRAGPVPTAIIGGVAGSILLVLIVVGGIVVALRRRRHTFKGDYSTKKHVYGNGYSKAGIPQHHPPMAQNLQYPDDSDDEKKAGPLGGSSYEEEEEEEEGGGGGERKVGGPHPKYDEDAKRPYFTVDEAEARQDGYGDRTLGYQYDPEQLDLAENMVSQNDGSFISKKEWYV
modifications: left off: small tags and cut ends
notes: as for B3
association with BACE1 (co-immunoprecipitation with nectin-1 antibody) [1]: interacted with BACE1 very strongly

B7: Δ28-300: nectin-1 ectodomain truncation mutant, V5 and flag tagged (protein)
chain: GPINYSLAGTYICEATNPIGTRSGQVEVNITEFPYTPSPPEHGRRAGPVPTAIIGGVAGSILLVLIVVGGIVVALRRRRHTFKGDYSTKKHVYGNGYSKAGIPQHHPPMAQNLQYPDDSDDEKKAGPLGGSSYEEEEEEEEGGGGGERKVGGPHPKYDEDAKRPYFTVDEAEARQDGYGDRTLGYQYDPEQLDLAENMVSQNDGSFISKKEWYV
modifications: left off: small tags and cut ends
notes: as for B3
association with BACE1 (co-immunoprecipitation with nectin-1 antibody) [1]: interacted with BACE1 very strongly

More lines, now with the values ahead:

association with BACE1 (co-immunoprecipitation with nectin-1 antibody) [1]: Association with BACE1 was also detected
B1: Δ28-324: nectin-1 ectodomain truncation mutant, V5 and flag tagged (protein)
chain: QVEVNITEFPYTPSPPEHGRRAGPVPTAIIGGVAGSILLVLIVVGGIVVALRRRRHTFKGDYSTKKHVYGNGYSKAGIPQHHPPMAQNLQYPDDSDDEKKAGPLGGSSYEEEEEEEEGGGGGERKVGGPHPKYDEDAKRPYFTVDEAEARQDGYGDRTLGYQYDPEQLDLAENMVSQNDGSFISKKEWYV
modifications: left off: small tags and cut ends
notes: as for B3

association with BACE1 (co-immunoprecipitation with nectin-1 antibody) [1]: Association with BACE1 was also detected
B2: Δ28-333: nectin-1 ectodomain truncation mutant, V5 and flag tagged (protein)
chain: PYTPSPPEHGRRAGPVPTAIIGGVAGSILLVLIVVGGIVVALRRRRHTFKGDYSTKKHVYGNGYSKAGIPQHHPPMAQNLQYPDDSDDEKKAGPLGGSSYEEEEEEEEGGGGGERKVGGPHPKYDEDAKRPYFTVDEAEARQDGYGDRTLGYQYDPEQLDLAENMVSQNDGSFISKKEWYV
modifications: left off: small tags and cut ends
notes: as for B3

association with BACE1 (co-immunoprecipitation with nectin-1 antibody) [1]: did not associate with BACE1
B8: Δ28-349: nectin-1 ectodomain truncation mutant, V5 and flag tagged (protein)
chain: PTAIIGGVAGSILLVLIVVGGIVVALRRRRHTFKGDYSTKKHVYGNGYSKAGIPQHHPPMAQNLQYPDDSDDEKKAGPLGGSSYEEEEEEEEGGGGGERKVGGPHPKYDEDAKRPYFTVDEAEARQDGYGDRTLGYQYDPEQLDLAENMVSQNDGSFISKKEWYV
modifications: left off: small tags and cut ends
notes: as for B3
